Data from patent US20260242458A1 (NOVAROCK BIOTHERAPEUTICS, published 2026).
Read-outs that look alike come from different tables or passages of the source.

Columns and labels:
[1] = target: T1, recombinant human IL-25 protein (human, UniProt Q9H293 33-177); assay: BLI (Octet), antibody captured on anti-human Fc biosensor, human IL-25 as analyte
T1 construct: Bought (Acro, catalog no: IL5-H4221) for ELISA; also called hIL-25; IL-17E
T1 sequence: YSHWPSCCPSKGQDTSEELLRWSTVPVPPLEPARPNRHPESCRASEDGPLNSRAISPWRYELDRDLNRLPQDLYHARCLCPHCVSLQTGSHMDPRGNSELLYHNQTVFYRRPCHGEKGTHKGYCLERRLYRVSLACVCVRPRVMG
Procedure: The binding kinetics of the disclosed anti-IL-25 antibodies to recombinant human IL-25 was determined by Octet® Bio-Layer Interferometry (BLI) systems by Sartorius. The assay uses anti-IL-25 monoclonal antibodies as the ligand and recombinant human IL-25 protein as the analyte.
Briefly, the assays were performed by first capturing 5 μg/ml of anti-IL-25 antibodies using anti-human Fc Octet biosensors. The mAb-captured biosensors were then submerged in wells containing serially diluted human IL-25 for 4-6 minutes, followed by a 10-15 minute dissociation time. The binding sensorgrams were collected and analyzed by the Octet Data Analysis software.

[2] = target: T1, recombinant human IL-25 protein; assay: cell-based or functional assay
[3] = target: T2, recombinant cynomolgus IL-25 protein (cynomolgus monkey, UniProt Q9H293 33-177 (human entry), limits assumed); assay: ELISA: recombinant cynomolgus IL-25 coated on the plate, detection with goat-anti-human Kappa Light Chain antibody HRP, ABTS, OD 405
T2 construct: Bought (Sino Biological Inc, customized order); also called cyno IL-25
T2 chain: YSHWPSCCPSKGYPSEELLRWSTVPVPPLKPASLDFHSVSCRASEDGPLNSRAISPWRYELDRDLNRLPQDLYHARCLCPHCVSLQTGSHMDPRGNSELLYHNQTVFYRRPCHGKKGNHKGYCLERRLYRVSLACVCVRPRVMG
Procedure: In another study, the ability of five disclosed anti-IL-25 antibodies (IL25Ab1 to Ab5) binding to cynomolgus IL-25 was evaluated using ELISA. Briefly, recombinant human IL-25 protein (Acro, catalog no: IL5-H4221, lot no: 401-20CNF1-UT) or recombinant cynomolgus IL-25 protein (Sino Biological Inc, catalog no: customized order, lot no: MB17MA2715) was directly coated to ELISA plates, respectively. Recombinant antibodies were then added to the plates followed by detection using goat-anti-human Kappa Light Chain antibody HRP (Novus, catalog no: NBP1-75064, Lot no: 68-188-010920). After the addition of ABTS (Moss Inc., catalog no: ABTS-1000, Lot no: 03086202) substrate, ELISA plates were read using an ELISA plate reader (Bioteck).

[4] = target: T1, recombinant human IL-25 protein; assay: cell-based or functional assay; remark: listed apart in the source
[5] = target: T1, recombinant human IL-25 protein; assay: cell-based or functional assay; remark: listed apart in the source
[6] = target: T3, recombinant mouse IL-25 protein (mouse, UniProt Q8VHH8 17-169); assay: ELISA, IL-25 coated, goat anti-human kappa light chain-HRP detection
T3 construct: Bought (Sino Biological Inc, catalog no: 50138-M07H)
T3 sequence: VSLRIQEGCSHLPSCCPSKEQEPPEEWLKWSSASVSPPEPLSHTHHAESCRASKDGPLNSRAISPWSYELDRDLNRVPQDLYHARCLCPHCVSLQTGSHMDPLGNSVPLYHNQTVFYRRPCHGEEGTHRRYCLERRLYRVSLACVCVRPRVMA
Procedure: (§1) In this study, the ability of three humanized anti-IL-25 antibodies generated in hIgG1 (IL25Ab6 to Ab8) and hIgG1 YTE formats (IL25Ab9 to Ab11) binding to both human, mouse and cynomolgus IL-25 was evaluated using ELISA. Briefly, recombinant human IL-25 protein (Acro, catalog no: IL5-H4221, lot no: 401-20CNF1-UT), recombinant mouse IL-25 protein (Sino Biological Inc, catalog no: 50138-M07H, lot no: LC15AP0607) or recombinant cynomolgus IL-25 protein (Sino Biological Inc, catalog no: customized order, lot no: MB17MA2715) was directly coated to ELISA plates, respectively. Recombinant antibodies were then added to the plates followed by detection using goat-anti-human Kappa Light Chain antibody HRP (Novus, catalog no: NBP1-75064, Lot no: 68-188-010920). After the addition of ABTS (Moss Inc., catalog no: ABTS-1000, Lot no: 03086202) substrate, ELISA plates were read using an ELISA plate reader (Bioteck).

[7] = target: T1, recombinant human IL-25 protein; assay: as above
Procedure: as §1

[8] = target: T2, recombinant cynomolgus IL-25 protein; assay: as above
Procedure: as §1

[9] = target: T3, recombinant mouse IL-25 protein; assay: ELISA, IL-25 coated, goat anti-human IgG-HRP detection
Procedure: (§2) In this study, the ability of five disclosed anti-IL-25 antibodies (IL25Ab1 to Ab5) binding to both human and mouse IL-25 was evaluated using ELISA. Briefly, recombinant human IL-25 protein (Acro, catalog no: IL5-H4221, lot no: 401-20CNF1-UT) or recombinant mouse IL-25 protein (Sino Biological Inc, catalog no: 50138-M07H, lot no: LC15AP0607) was directly coated to ELISA plates, respectively. Recombinant antibodies were then added to the plates followed by detection using goat-anti-human IgG-HRP (Jackson ImmunoResearch, catalog no: 109-035-098, Lot no: 157400). After the addition of ABTS (Moss Inc., catalog no: ABTS-1000, Lot no: 03086202) substrate, ELISA plates were read using an ELISA plate reader (Bioteck).

[10] = target: T1, recombinant human IL-25 protein; assay: as above
Procedure: as §2

[11] = target: T1, recombinant human IL-25 protein; assay: cell-based or functional assay; remark: listed apart in the source
[12] = target: T1, recombinant human IL-25 protein; assay: cell-based or functional assay; remark: listed apart in the source
[13] = target: T1, recombinant human IL-25 protein; assay: cell-based or functional assay; remark: listed apart in the source

Kd [1]: < 1 pM
koff [1]: < 1e-07 s⁻¹
kon [1]: 875000 M⁻¹ s⁻¹
IC50, IL-25 induced IL-5 production in human PBMC [2]: 160 pM
EC50 (read off the curve) [3]: ~100 pM
IC50, IL-25 induced CXCL1 production in HT-29 cells [4]: 67 pM
IC50, IL-25 induced NF-kB signaling (SEAP) in HEK-Blue IL-17 reporter cells [5]: 37 pM
EC50 [6]: 390 pM
EC50 [7]: 506 pM
EC50 [8]: 364 pM
EC50 [9]: 13 pM
EC50 [10]: 22 pM
IC50, IL-25 induced IL-5 production in human PBMC [11]: 302 pM
IC50, IL-25 induced NF-kB signaling (SEAP) in HEK-Blue IL-17 reporter cells [12]: 49 pM
IC50, IL-25 induced CXCL1 production in HT-29 cells [13]: 144 pM
B1: IL25Ab3 (antibody, V domains shown)
VH: EVQLQQSGPELVKPGGSVRISCKASGYSFTGYTMNWVKQSHGKNLEWIGLINPDNGGTSHKQRFMGKATLTVDKSSSTAYMELLSLTSEDSAVYYCAREGYYGPSPFHHYAMDYWGQGTSVTVSS
VL: DIQMTQTTSSLSASLGDRVTISCSASQDISNYLNWYQQKPDGTIKLLIYYTSTLHSGVPSRFSGSGSGTDYSLTISNLEPEDIATYYCQQYSKLPYTFGGGTKLEIK
notes: detected with anti-human IgG or anti-human kappa reagents; also called anti-IL-25Ab3; mouse origin of anti-IL-25 specific antibody
